From paper PMC6639074 (eLife, 2019)

Target: T1, GFP-FLAG-STAMBPL1 (human, UniProt Q96FJ0 1-436)
T1 construct: STAMBPL1, human, amplified from FLAG-HA-STAMBPL1; GAGAGA linker between GFP and FLAG; also called GFP-STAMBPL1; recombinant STAMBPL1; source: HEK293T, transfected, purified (FLAG M2 resin, 3X FLAG peptide); MEFs, transfected (relocation imaging); not shown: GFP, N-terminal, kept; FLAG, N-terminal, kept
T1 sequence (looked up): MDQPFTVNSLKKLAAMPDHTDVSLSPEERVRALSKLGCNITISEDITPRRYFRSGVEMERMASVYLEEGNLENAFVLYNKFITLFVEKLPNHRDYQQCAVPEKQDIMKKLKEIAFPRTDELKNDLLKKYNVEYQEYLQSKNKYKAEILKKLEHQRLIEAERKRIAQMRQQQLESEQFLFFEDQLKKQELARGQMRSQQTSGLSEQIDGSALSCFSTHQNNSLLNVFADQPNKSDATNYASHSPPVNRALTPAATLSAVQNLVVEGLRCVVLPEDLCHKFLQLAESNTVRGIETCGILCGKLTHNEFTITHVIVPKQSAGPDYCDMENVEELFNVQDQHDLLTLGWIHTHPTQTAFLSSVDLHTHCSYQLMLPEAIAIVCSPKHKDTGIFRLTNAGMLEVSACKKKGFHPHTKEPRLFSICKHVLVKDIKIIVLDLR
Test: pull-down; purified GFP-FLAG-STAMBPL1 applied to GST-Rab beads with 100 uM GppNHp or GDP, 4 C, 2 hr, high salt elution, Coomassie stained gel
Details: both partners purified

B1: GST-Rab2A(Q65L) (natural protein, human, UniProt P61019 1-212, looked up)
chain: MAYAYLFKYIIIGDTGVGKSCLLLQFTDKRFQPVHDLTIGVEFGARMITIDGKQIKLQIWDTAGLESFRSITRSYYRGAAGALLVYDITRRDTFNHLTTWLEDARQHSNSNMVIMLIGNKSDLESRREVKKEEGEAFAREHGLIFMETSAKTASNVEEAFINTAKEIYEKIQEGVFDINNEANGIKIGPQHAATNATHAGNQGGQQAGGGCC
notes: with GppNHp; also called GST-Rab2A QL; recombinant Rab2A
- binding result: binds
